In PMC4357434 one finds τb (characteristic time of binding), apparent FRET percentage E pb (acceptor photobleaching) and apparent FRET efficiency E D data, which are given here for three molecules.

Test [1] addresses RFP-tubulin (TagRFP-labeled α-tubulin) (UniProt P68363). In words: FRET or BRET; FRET-iMSD (spatiotemporal image correlation of the FRET signal), TIRF time series at 10 ms resolution, about 60 s, live co-transfected CHO cells, basal condition; characteristic time of binding τb from the fit of G(0,τ). In general terms: BRET reads energy transfer from a luciferase to a nearby fluorophore.
Sequence of UniProt P68363 (P68363 whole entry): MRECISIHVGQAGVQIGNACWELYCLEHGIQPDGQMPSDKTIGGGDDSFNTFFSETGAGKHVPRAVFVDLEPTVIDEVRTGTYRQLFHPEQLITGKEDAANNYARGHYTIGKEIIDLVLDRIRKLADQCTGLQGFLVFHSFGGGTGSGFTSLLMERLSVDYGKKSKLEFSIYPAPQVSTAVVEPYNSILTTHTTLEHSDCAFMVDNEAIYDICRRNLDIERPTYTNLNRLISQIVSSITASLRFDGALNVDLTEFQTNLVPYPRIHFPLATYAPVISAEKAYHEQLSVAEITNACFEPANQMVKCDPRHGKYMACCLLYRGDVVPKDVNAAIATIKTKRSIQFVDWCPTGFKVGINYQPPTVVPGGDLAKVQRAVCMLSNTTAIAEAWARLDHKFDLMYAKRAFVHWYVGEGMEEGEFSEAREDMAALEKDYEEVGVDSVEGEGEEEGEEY

Test [2] addresses TRPV1-RFP (Transient Receptor Potential Vanilloid 1 fused at its C-terminus to TagRFP) (UniProt O35433). In words: FRET or BRET; acceptor photobleaching FRET in TIRF mode on live co-transfected CHO cells; acceptor bleached at 561 nm; apparent FRET percentage E pb after Stepensky.
Sequence of UniProt O35433 (O35433 whole entry, the tested form may be a part): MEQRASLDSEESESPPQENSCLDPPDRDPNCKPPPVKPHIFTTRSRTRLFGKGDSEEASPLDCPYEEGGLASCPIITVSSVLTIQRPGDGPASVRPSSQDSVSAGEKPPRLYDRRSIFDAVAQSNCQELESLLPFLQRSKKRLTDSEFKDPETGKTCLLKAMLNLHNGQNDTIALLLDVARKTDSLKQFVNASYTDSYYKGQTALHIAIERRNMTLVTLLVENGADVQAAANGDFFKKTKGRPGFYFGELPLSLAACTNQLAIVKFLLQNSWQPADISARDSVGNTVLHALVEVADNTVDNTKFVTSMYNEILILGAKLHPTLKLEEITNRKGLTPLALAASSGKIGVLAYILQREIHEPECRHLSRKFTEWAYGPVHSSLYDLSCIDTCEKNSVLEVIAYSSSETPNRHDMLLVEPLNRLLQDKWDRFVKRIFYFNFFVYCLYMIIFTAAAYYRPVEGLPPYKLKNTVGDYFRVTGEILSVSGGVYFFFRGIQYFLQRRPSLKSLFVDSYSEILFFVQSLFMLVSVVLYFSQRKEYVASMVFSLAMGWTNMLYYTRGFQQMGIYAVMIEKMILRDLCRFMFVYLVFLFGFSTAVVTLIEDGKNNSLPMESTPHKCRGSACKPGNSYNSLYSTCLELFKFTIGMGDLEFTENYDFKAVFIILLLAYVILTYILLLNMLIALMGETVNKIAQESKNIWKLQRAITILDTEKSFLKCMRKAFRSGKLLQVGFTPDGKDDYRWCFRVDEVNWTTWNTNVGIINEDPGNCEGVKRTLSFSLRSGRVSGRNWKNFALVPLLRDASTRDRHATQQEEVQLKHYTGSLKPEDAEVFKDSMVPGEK
Test [3] has the same target. In words: FRET or BRET; FRET-iMSD (spatiotemporal image correlation of the FRET signal), TIRF time series at 10 ms resolution, about 60 s, live co-transfected CHO cells, basal condition; characteristic time of binding τb from the fit of G(0,τ).
For test [4] the target is unchanged. As to the kind of experiment: FRET or BRET; sensitized emission FRET (SE-FRET) imaged in TIRF mode on the membrane of live CHO K1 cells co-transfected with donor- and acceptor-fused proteins; bleed-through corrected; donor-normalised apparent FRET efficiency E D; 37°C.

Regarding “TRPV1-EGFP (from UniProt O35433 1-838) (receptor)”, the τb (characteristic time of binding) in test [1] is > 60 s.

B1: Caveolin-1-EGFP (natural protein)
chain: MSGGKYVDSEGHLYTVPIREQGNIYKPNNKAMAEEMSEKQVYDAHTKEIDLVNRDPKHLNDDVVKIDFEDVIAEPEGTHSFDGIWKASFTTFTVTKYWFYRLLSALFGIPMALIWGIYFAILSFLHIWAVVPCIKSFLIEIQCISRVYSIYVHTFCDPFFEAVGKIFSNIRINMQKET
For the molecule B1, the apparent FRET percentage E pb (acceptor photobleaching) in test [2] turned out to be 11%. The same molecule showed a τb (characteristic time of binding) in test [3] of 16.4 s. Besides, the apparent FRET efficiency E D in test [4] amounted to 4%.

B2: Caveolin-1-YFP (natural protein)
chain: B1 chain
B2: the apparent FRET efficiency E D in test [4] worked out at 30%.
